Assay results taken from patent US20260364214A1, “MULTIVALENT FIBROBLAST ACTIVATION PROTEIN LIGANDS FOR TARGETED DELIVERY APPLICATIONS” (Philochem AG, priority 2022, published 2026).

Columns and labels:
[1] = tested on: HT-1080.hFAP tumors; test: Quantitative in vivo MMAE release in tumor and healthy organs; parameters: species or system mouse (athymic Balb/c AnNRj-Foxn1); conditions: 250 nmol/kg; vs ESV6-GlyPro-MMAE and Bi-ESV6-GlyPro-MMAE
Source text: The ESV6 binding moiety in monomeric, dimeric or trimeric form was conjugated to an identical linker-payload structure based on a Glycine-Proline linker and an MMAE cytotoxic moiety. The three conjugates: (i) ESV6-GlyPro-MMAE—corresponding to Conjugate 58a of EP3891138B1—, (ii) Bi-ESV6-GlyPro-MMAE—corresponding to Conjugate 11 of WO2022/171811A1, and (iii) Tri-ESV6-GlyPro-MMAE—corresponding to Conjugate 9 of the present invention—, were compared in a tumor mouse model to study the efficacy of release of the MMAE cytotoxic moiety into the tumor.
HT-1080.hFAP tumors were implanted into the right flank of athymic Balb/c AnNRj-Foxn1 mice and allowed to grow to an average volume of approximately 200 mm^3. Mice were injected with the three conjugates at a dose of 250 nmol/kg and sacrificed at different timepoints after administration. Fresh blood was collected in lithium heparin tubes (BD Microcontainer LH Tubes), vortexed, and centrifuged (15,000 g, 15 minutes). […] Peak areas of analytes and internal standards were integrated, and corresponding ratios were calculated. The ratios were then transformed into pmol/g of wet tissue using single-concentration external calibration points and corrected by the total weight of the sample analysed. The percentage of injected dose per gram (% ID/g) was finally calculated by normalizing the value based on the total dose injected into the mouse. […]

[2] = Tolerability (body weight change) of MMAE conjugates in HT-1080.hFAP tumor bearing mice; format: in vivo, mouse (athymic Balb/c AnNRj-Foxn1); conditions: 50 or 125 nmol/kg
Experimental: The anti-cancer efficacy of (i) ESV6-GlyPro-MMAE (50 or 125 nmol/kg) —corresponding to Conjugate 58a of EP3891138B1—, and (ii) Tri-ESV6-GlyPro-MMAE (50 or 125 nmol/kg) according to the present invention was assessed in athymic Balb/c AnNRj-Foxn1 mice bearing HT-1080.hFAP tumor in the right flank. Therapy experiments started when the average volume of established tumors had reached 80-100 mm3. Body weight of the animals and tumor volume were daily measured and recorded. Tumor dimensions were measured with an electronic caliper and tumor volume was calculated with the formula (long side, mm)×(short side, mm)×(short side, mm)×0.5. Animals were euthanized when one or more termination criterium indicated by the experimental license was reached. Prism 7 software (GraphPad Software) was used for data analysis.

CC[C@@H](C)[C@@H]([C@@H](CC(=O)N1CCC[C@H]1[C@H](OC)[C@@H](C)C(=O)N[C@H](C)[C@@H](O)c1ccccc1)OC)N(C)C(=O)[C@@H](NC(=O)[C@H](C(C)C)N(C)C(=O)OCc1ccc(NC(=O)[C@@H]2CCCN2C(=O)CNC(=O)CCCCCN2C(=O)CC(SC[C@H](NC(=O)[C@H](CC(=O)O)NC(=O)[C@H](CCCCN)NC(=O)[C@H](CC(=O)O)NC(=O)CCC(=O)NC(COCCC(=O)NCCNC(=O)CCC(=O)Nc3cccc4c(C(=O)NCC(=O)N5CC(F)(F)C[C@H]5C#N)ccnc34)(COCCC(=O)NCCNC(=O)CCC(=O)Nc3cccc4c(C(=O)NCC(=O)N5CC(F)(F)C[C@H]5C#N)ccnc34)COCCC(=O)NCCNC(=O)CCC(=O)Nc3cccc4c(C(=O)NCC(=O)N5CC(F)(F)C[C@H]5C#N)ccnc34)C(=O)O)C2=O)cc1)C(C)C (stereo in doubt) [Tri-ESV6-GlyPro-MMAE]
MMAE release in tumor and healthy organs, in words [1]: cleaner biodistribution profile, with high and prolonged accumulation at the tumor site, and lower release in the healthy organs
tolerability (body weight change), in words [2]: well tolerated
